Measurements from publication PMC5490264 (Nature Communications, 2017).

B1: YscN (enzyme)
chain: MLSLDQIPHHIRHGIVGSRLIQIRGRVTQVTGTLLKAVVPGVRIGELCYLRNPDNSLSLQAEVIGFAQHQALLIPLGEMYGISSNTEVSPTGTMHQVGVGEHLLGQVLDGLGQPFDGGHLPEPAAWYPVYQDAPAPMSRKLITTPLSLGIRVIDGLLTCGEGQRMGIFAAAGGGKSTLLASLIRSAEVDVTVLALIGERGREVREFIESDLGEEGLRKAVLVVATSDRPSMERAKAGFVATSIAEYFRDQGKRVLLLMDSVTRFARAQREIGLAAGEPPTRRGYPPSVFAALPRLMERAGQSSKGSITALYTVLVEGDDMTEPVADETRSILDGHIILSRKLAAANHYPAIDVLRSASRVMNQIVSKEHKTWAGDLRRLLAKYEEVELLLQIGEYQKGQDKEADQAIERIGAIRGWLCQGTHELSHFNETLNLLETLTQ
notes: YscN (SctN), type III secretion ATPase, Yersinia enterocolitica; also called SctN/YscN; T3SS ATPase; source: endogenous, Y. enterocolitica lysate (pYV virulence plasmid)
B2: YscL (natural protein)
chain: MSQTCQTGYAYMQPFVQIIPSNLSLACGLRILRAEDYQSSLTTEELISAAKQDAEKILADAQEVYEQQKQLGWQAGMDEARTLQATLIHETQLQCQQFYRHVEQQMSEVVLLAVRKILNDYDQVDMTLQVVREALALVSNQKQVVVRVNPDQAGTIREQIAKVHKDFPEISYLEVTADARLDQGGCILETEVGIIDASIDGQIEALSRAISTTLGQMKVTEEE
notes: YscL (SctL), negative regulator of the T3SS ATPase, Yersinia enterocolitica; untagged; also called SctL/YscL; negative regulator of the ATPase; source: endogenous, Y. enterocolitica lysate (strain expressing Halo-YscQ)
B3: Halo-YscQ (natural protein)
chain: MSLLTLPQAKLSELSLRQRLSHYRQNYLWEEGKLELTVSEPPSSLNCILQLQWKGTHFTLYCFGDDLANWLTPDLLGAPFSTLPKELQLALLERQTVFLPKLVCNDIATASLSVTQPLLSLRLSRDNAHISFWLTSAEALFALLPARPNSERIPLPILLSLRWHKVYLTLDEVDSLRLGDVLLAPEGSGPNSPVLAYVGENPWGYFQLQSNKLEFIGMSHESDELNPKPLTDLNQLPVQVSFEVGRQILDWHTLTSLEPGSLIDLTTPVDGEVRLLANGRLLGHGRLVEIQGRLGVRIERLTEVTIS
notes: also called Halo-tagged YscQ; SctQ/YscQ

How the values were obtained:
[1] = target: B3; assay: affinity purification with mass spectrometry; as a1, but strains lacking YscD (ΔyscD; all soluble components diffuse in the cytosol); amounts normalized to the WT strain; one representative quantitative mass spectrometry experiment; conditions: partners not purified
[2] = target: the molecule itself; assay: as above

Binder	degree of interaction in the ΔyscD strain relative to the WT strain [1] [%]	degree of interaction in the ΔyscD strain relative to the WT strain [2] [%]
B1	~20	–
B2	~50	–
B3	–	~50
